# From PMC10530652 (BME Frontiers, 2021)
# How the values were obtained:
# [1] = Stability study of FIB One aqueous formulation (HPLC); assay type: physicochemical; conditions: for Conc. / pH: aqueous formulation; for Conc. / ∆% / Total imp. RRT(%): HPLC; for ∆%: change of conc.
# [2] = test system: MMP activity in the alveolar space; assay: In vivo assessment of FIB One and AZD1236 with TLBC in patients; set-up: species or system human; conditions: 500 μL AZD1236 14 μg/mL predelivered, then 500 μL FIB One 20 μg/mL, nine patients
# Method: In subsequent testing the Miniaturized Alveoflex™-TLBC combination replaced the Alveoflex™ fibre. The entire apparatus was passed transbronchially to allow direct alveolar imaging before localised delivery of agents. Once transbronchial pass was accomplished, baseline lung imaging was recorded for at least 30 sec. A 500 μL microdose of either AZD1236 (14 μg/mL) or sterile PBS (control) was administered under direct observation, and further imaging was obtained for >60 sec. 500 μL of FIB One (20 μg/mL) (delivered only after at least 60s to allow MMP inhibition) was then dosed to the same area with a further 90-120 sec of imaging captured. If considerable movement due to breathing or coughing was encountered, imaging was halted and a new segment identified. Up to 6 segments of interest were investigated per patient determined by patient tolerance.
# All video sequences were assessed by two clinicians with clinical experience of pulmonary endomicroscopy. Frames with excessive movement or lack of recognizable alveolar structure were removed from analysis. Videos were assessed to ensure stability throughout the imaging procedure. […] All video files were analysed using the Cellvizio® Viewer image processing software from Mauna Kea Technologies, Paris. […] The median RFU was calculated for each category and used as a comparative value between groups.
# [3] = fridge 2-8 °C, 1m, 1st of 2 vials
# [4] = fridge 2-8 °C, 1m, 2nd of 2 vials
# [5] = fridge 2-8 °C, 3m, 1st of 2 vials
# [6] = fridge 2-8 °C, 3m, 2nd of 2 vials
# [7] = fridge 2-8 °C, 6m, 1st of 2 vials
# [8] = fridge 2-8 °C, 6m, 2nd of 2 vials
# [9] = fridge 2-8 °C, 9m, 1st of 2 vials
# [10] = fridge 2-8 °C, 9m, 2nd of 2 vials
# [11] = fridge 2-8 °C, 10m, 1st of 2 vials
# [12] = fridge 2-8 °C, 10m, 2nd of 2 vials
# [13] = fridge 2-8 °C, 12m, 1st of 2 vials
# [14] = fridge 2-8 °C, 12m, 2nd of 2 vials
# [15] = fridge 2-8 °C, 21m, 1st of 2 vials
# [16] = fridge 2-8 °C, 21m, 2nd of 2 vials
# [17] = fridge 2-8 °C, 24m, 1st of 2 vials
# [18] = fridge 2-8 °C, 24m, 2nd of 2 vials
# [19] = fridge 2-8 °C, 24h, 1st of 2 vials
# [20] = fridge 2-8 °C, 24h, 2nd of 2 vials
# [21] = fridge 2-8 °C, 14d, 1st of 2 vials
# [22] = fridge 2-8 °C, 14d, 2nd of 2 vials
substance,measurement,setting,value
(Pro-Phe-Gly-Nle-Lys-βAla)3 [FIB One],degradation in aqueous formulation of the drug product (HPLC traces),"[1]; after 24 months, stored at 2-8°C",no degradation
same,Conc.,[1]; [3],80.16 µg per 5mL
same,Conc.,[1]; [4],77.20 µg per 5mL
same,Conc.,[1]; [5],78.87 µg per 5mL
same,Conc.,[1]; [6],72.63 µg per 5mL
same,Conc.,[1]; [7],64.94 µg per 5mL
same,Conc.,[1]; [8],72.74 µg per 5mL
same,Conc.,[1]; [9],70.54 µg per 5mL
same,Conc.,[1]; [10],66.27 µg per 5mL
same,Conc.,[1]; [11],62.55 µg per 5mL
same,Conc.,[1]; [12],67.69 µg per 5mL
same,pH,[1]; [13],7.5
same,pH,[1]; [14],7.5
same,Conc.,[1]; [13],60.40 µg per 5mL
same,Conc.,[1]; [14],57.67 µg per 5mL
same,pH,[1]; [15],7.5
same,pH,[1]; [16],7.5
same,Conc.,[1]; [15],65.38 µg per 5mL
same,Conc.,[1]; [16],59.62 µg per 5mL
same,pH,[1]; [17],7.5
same,pH,[1]; [18],7.5
same,Conc.,[1]; [17],58.4 µg per 5mL
same,Conc.,[1]; [18],58.4 µg per 5mL
same,Conc.,[1]; [19],81.63 µg per 5mL
same,Conc.,[1]; [20],82.28 µg per 5mL
same,Conc.,[1]; [21],76.85 µg per 5mL
same,Conc.,[1]; [22],84.60 µg per 5mL
same,pH,[1]; timepoint 0,7.5
same,∆%,[1]; [3],-10.9%
same,∆%,[1]; [4],-14.2%
same,∆%,[1]; [5],-12.4%
same,∆%,[1]; [6],-19.3%
same,∆%,[1]; [7],-27.8%
same,∆%,[1]; [8],-19.2%
same,∆%,[1]; [9],-21.6%
same,∆%,[1]; [10],-26.4%
same,∆%,[1]; [11],-30.5%
same,∆%,[1]; [12],-24.8%
same,∆%,[1]; [13],-32.9%
same,∆%,[1]; [14],-35.9%
same,∆%,[1]; [15],-27.3%
same,∆%,[1]; [16],-33.8%
same,∆%,[1]; [17],-35.1%
same,∆%,[1]; [18],-35.1%
same,∆%,[1]; [19],-9.3%
same,∆%,[1]; [20],-8.6%
same,∆%,[1]; [21],-14.6%
same,∆%,[1]; [22],-6.1%
same,Total imp. RRT(%),[1]; [3],ND/NQ ND/NQ
same,Total imp. RRT(%),[1]; [4],ND/NQ ND/NQ
same,Total imp. RRT(%),[1]; [5],ND/NQ ND/NQ
same,Total imp. RRT(%),[1]; [6],ND/NQ ND/NQ
same,Total imp. RRT(%),[1]; [7],ND/NQ ND/NQ
same,Total imp. RRT(%),[1]; [8],ND/NQ ND/NQ
same,Total imp. RRT(%),[1]; [9],ND/NQ ND/NQ
same,Total imp. RRT(%),[1]; [10],ND/NQ ND/NQ
same,Total imp. RRT(%),[1]; [11],ND/NQ ND/NQ
same,Total imp. RRT(%),[1]; [12],ND/NQ ND/NQ
same,Total imp. RRT(%),[1]; [13],ND/NQ ND/NQ
same,Total imp. RRT(%),[1]; [14],ND/NQ ND/NQ
same,Total imp. RRT(%),[1]; [15],ND/NQ ND/NQ
same,Total imp. RRT(%),[1]; [16],ND/NQ ND/NQ
same,Total imp. RRT(%),[1]; [17],ND/NQ ND/NQ
same,Total imp. RRT(%),[1]; [18],ND/NQ ND/NQ
same,Total imp. RRT(%),[1]; [19],ND/NQ ND/NQ
same,Total imp. RRT(%),[1]; [20],ND/NQ ND/NQ
same,Total imp. RRT(%),[1]; [21],ND/NQ ND/NQ
same,Total imp. RRT(%),[1]; [22],ND/NQ ND/NQ
AZD1236,drug-target engagement within the alveolar space,[2],in situ in vivo drug-target engagement
